Reference: patent US9422349

Target: GLP-1 receptor on RIN-m5F rat insulinoma cells (rat) (UniProt P32301)
Test: cell-based or functional assay

Sequence of UniProt P32301 (P32301 22-463): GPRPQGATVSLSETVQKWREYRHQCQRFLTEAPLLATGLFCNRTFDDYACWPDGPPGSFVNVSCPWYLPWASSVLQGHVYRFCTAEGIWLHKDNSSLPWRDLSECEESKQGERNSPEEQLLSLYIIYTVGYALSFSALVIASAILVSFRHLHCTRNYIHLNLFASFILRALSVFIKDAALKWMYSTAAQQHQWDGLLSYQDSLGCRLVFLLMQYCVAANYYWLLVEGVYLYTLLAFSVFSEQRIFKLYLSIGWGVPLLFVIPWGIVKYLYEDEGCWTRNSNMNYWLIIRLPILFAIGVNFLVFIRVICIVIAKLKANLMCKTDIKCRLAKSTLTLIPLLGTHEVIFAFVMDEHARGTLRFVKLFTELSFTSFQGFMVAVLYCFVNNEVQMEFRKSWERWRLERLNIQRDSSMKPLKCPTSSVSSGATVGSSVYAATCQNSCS

Substance	cAMP production in RIN-m5F cells, EC50 [nM]	cAMP production in RIN-m5F cells, ratio vs Exendin4 (ratio vs Exendin4)
desamino-histidyl-exendin-4 (from UniProt P26349 48-86) (peptide)	0.95	127
imidazoacetyl-exendin-4 (from UniProt P26349 48-86) (peptide)	1.2	100
